Biological target: T1, APP-derived C-terminal fragment (APP-CTF) (human (endogenous in iPSC-derived NPCs …, UniProt P05067 672-770))
T1 construct: also called C-terminal APP; C-termAPP; source: endogenous, human iPSC-derived NPCs and cortical neurons, fixed cells
Test: proximity ligation; DuoLink PLA on fixed (4% PFA), permeabilised human iPSC-derived NPCs (day 45) and neurons (day 75); primary antibodies against APP (N-terminal or C-terminal), BACE1 and PSEN1; proximity of maximum 40 nm; PLA dot area divided by nuclear area
Conditions: partners not purified

B1: BACE1 (beta-secretase) (enzyme, UniProt P56817 46-501, looked up)
chain: ETDEEPEEPGRRGSFVEMVDNLRGKSGQGYYVEMTVGSPPQTLNILVDTGSSNFAVGAAPHPFLHRYYQRQLSSTYRDLRKGVYVPYTQGKWEGELGTDLVSIPHGPNVTVRANIAAITESDKFFINGSNWEGILGLAYAEIARPDDSLEPFFDSLVKQTHVPNLFSLQLCGAGFPLNQSEVLASVGGSMIIGGIDHSLYTGSLWYTPIRREWYYEVIIVRVEINGQDLKMDCKEYNYDKSIVDSGTTNLRLPKKVFEAAVKSIKAASSTEKFPDGFWLGEQLVCWQAGTTPWNIFPVISLYLMGEVTNQSFRITILPQQYLRPVEDVATSQDDCYKFAISQSSTGTVMGAVIMEGFYVVFDRARKRIGFAVSACHVHDEFRTAAVEGPFVTLDMEDCGYNIPQTDESTLMTIAYVMAAICALFMLPLCLMVCQWRCLRCLRQQHDDFADDISLLK
notes: BACE1, human, endogenous; also called β-secretase; source: endogenous, human iPSC-derived NPCs and cortical neurons, fixed cells; endogenous, SH-SY5Y cells, fixed
For B1, which “fold PLA colocalization against flAPP/BACE1 in NPCs (calculated)” value is on record?
Its value is ≥ 6.7 times.

From publication PMC10477112, “APP-BACE1 Interaction and Intracellular Localization Regulate Aβ Production in iPSC-Derived Cortical Neurons” (Cellular and Molecular Neurobiology, 2023)
